Like-named read-outs stand apart in the source and are kept apart here.

We go through 10 molecules from patent US20150030595A1 (ANTIBODY AND RECEPTOR THERAPEUTICS, published 2015).

Assay [1] deals with T1, Fc.
T1 construct: domain: Fc
Kind of assay: phage ELISA, Fc coated. As to the method:
(§1) Colonies obtained from a group of the polyclonal phage antibodies having high binding capacity were cultured at a temperature of 37° C. for 16 hours in a 96-deep well plate (Bioneer 90030) containing 1 ml of a medium supplemented with 2×YTCM, 2% glucose, and 5 mM MgCl₂. 100 to 200 μl of the cultured cells were taken, and diluted with 1 ml of a medium supplemented with 2×YTCM, 2% glucose, and 5 mM MgCl₂ so that the OD₆₀₀ value of the cultured cells reached 1. Thereafter, the cells were cultured at a temperature of 37° C. for 2 to 3 hours in a 96-deep well plate so that the OD₆₀₀ value reached 0.5 to 0.7. Then, the cells were infected with an […] so that an MOI value became 1:20, and then cultured at a temperature of 30° C. for 16 hours in a medium supplemented with 2×YTCMK, 5 mM MgCl₂, and 1 mM IPTG. The cultured cells were centrifuged (at 4,500 rpm and 4° C. for 15 minutes) to collect a supernatant. Then, the supernatant was thoroughly dissolved in 4% PEG 6000 and 3% NaCl, and reacted on ice for an hour. The resulting reaction mixture was centrifuged again (at 8,000 rpm and 4° C. for 20 minutes), and the pellet was dissolved in PBS, and then centrifuged (at 12,000 rpm and 4° C. for 10 minutes) to obtain a supernatant, which was transferred to a new tube and stored at 4° C. Subsequently, a 96-well immunoplate was coated with antigens at a concentration of 100 ng per well by treating the immunoplate with the antigens at 4° C. for 16 hours, and each well was then blocked with skim milk (4%) dissolved in PBS. Each well was washed with 0.2 ml of PBS-Tween 20 (0.05%), and 100 μl of the monoclonal scFv-phages obtained by the above-described method were added to each well, and then reacted at room temperature for 2 hours. Each well was again washed four times with […] of PBS-Tween 20 (0.05%), and a secondary antibody, anti-M13-HRP, was diluted at 1:2000, added to each well, and then reacted at room temperature for an hour. Each well was washed with […] of PBS-Tween 20, colorimetrically developed, and then measured for optical density at 490 nm.

Assay [2] has as its target T1, Fc. The assay can be described thus: phage ELISA, Fc coated. The source holds these as a separate data set. For orientation: In an ELISA, binding on a coated surface is turned into a signal by an enzyme label.
Assay [3] concerns the target T2, ACVR2B-Fc fusion protein (human, UniProt Q13705 19-137).
T2 construct: also called water-soluble ACVR2B
T2 sequence: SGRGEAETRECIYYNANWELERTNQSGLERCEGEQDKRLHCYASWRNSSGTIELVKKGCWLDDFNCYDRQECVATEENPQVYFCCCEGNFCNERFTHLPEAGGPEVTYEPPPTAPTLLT
Kind of assay: phage ELISA, ACVR2B coated. The procedure: as §1

The target of assay [4] is T2, ACVR2B-Fc fusion protein. The assay can be described thus: phage ELISA, ACVR2B coated. This is another data set of the same source.
The target in assay [5] is T3, anti-myc antibody coated on the ELISA plate.
T3 construct: also called a-MYC; a-myc
The assay can be described thus: phage ELISA, anti-myc coated. As to the method:
as §1

In assay [6] the target is T3, anti-myc antibody coated on the ELISA …. The assay can be described thus: phage ELISA, anti-myc coated. The source holds these as a separate data set.
For assay [7], the target named is T2, ACVR2B-Fc fusion protein. The assay can be described thus: phage ELISA; OD on ACVR2B divided by OD on a-myc.

B1: ACVR2B B08 (monoclonal scFv-phage) (scFv, V domains shown)
VH: VQLVQSGGGLVHPGQSLRLSCTGSGFPFGDYSMTWVRQAPGKGLEWVGLVRSKAYGGTTEYAASVKGRFIMSRDDSRSIAYLQMNSLRAEDTAVYYCARGHYGMDVWGQGTTVTVSS
VL: DIQMTQSPSSVSASVGDRVTITCRASQGISNWLAWYQQKPGKAPKLLIYAASSLQSGVPSRFSGSGSGTDFTLTISSLQPEDFATYYCQQAKSYPYTFGQGTKVEIK
notes: also called B8
As for B1, the OD490 in the assay with Fc [1] came out at 0.0455 OD; in the assay with Fc [2], 0.045 OD; in the assay with ACVR2B-Fc fusion protein [3], 2.64 OD; with ACVR2B-Fc fusion protein [4], 2.64 OD; in assay [5], 1.16 OD; in assay [6] it was 1.16 OD. Also, in the assay with ACVR2B-Fc fusion protein [7], the Ratio turned out to be 2.28.

B2: ACVR2B C07 (monoclonal scFv-phage) (scFv, V domains shown)
VH: QMQLVQSGGGLVKPGGSLRLSCAPSGFTFRDYHMSWIRQAPGKGLEWISNISNSGTNIYYADSVKGRFTISRDNAKNSLYLQMNSLRAEDTAVYYCARGHYGMDIWGQGTTITVSS
VL: DIQMTQSPSSLSASVGDRVTITCRASQGIANYLAWYQQKPGKAPKLLIYAASTLQSGVPSRFSGSGSGTDFTLTISSLQPEDFATYYCQQVKSYPLSFGGGTKVEIK
notes: also called C7
Consider B2, for which the OD490 with Fc [1] was found to be 0.0435 OD; in the assay with Fc [2], 0.043 OD; with ACVR2B-Fc fusion protein [3], 2.98 OD; with ACVR2B-Fc fusion protein [4] it was 2.98 OD; in assay [5], 0.441 OD; in assay [6], 0.44 OD. Moreover, the Ratio in the assay with ACVR2B-Fc fusion protein [7] stood at 6.75.

B3: ACVR2B C08 (monoclonal scFv-phage) (scFv, V domains shown)
VH: VQLVESGGGLVQPGGSLRLSCSASGFTFSSYAMHWVRQAPGKGLEYVSAISSNGGSTYYADSVKGRFTISRDNSKNTLYLQMNSLRAEDTAVYYCAKTYGGYGNAFDIWGQGTMITVSS
VL: DIQMTQSPSSVSASVGDRVTITCRASQGISRWLAWYQQKPGKAPKLLIYAASNLQSGVPSRFSGSGSGTDFTLTINSLQPEDFATYFCQQGKSFPYTFGPGTKVEIK
notes: also called C8
Take B3: the OD490 stood at 0.0721 OD with Fc [1]; 0.072 OD with Fc [2]; 2.86 OD with ACVR2B-Fc fusion protein [3]; 2.87 OD in the assay with ACVR2B-Fc fusion protein [4]; 1.17 OD in assay [5]; 1.17 OD in assay [6]. Further, the Ratio with ACVR2B-Fc fusion protein [7] was 2.45.

B4: ACVR2B B11 (monoclonal scFv-phage) (scFv, V domains shown)
VH: VQLVESGGGLVQPGRSLRLSCAASGFTFDNHAMHWVRRAPGKGLEWVSGISWNGGTTAYADSVKGRFSIFRDNAEKSLYLQMNSLRAEDTAVYYCARGSSSGRYYFDYWGQGTLVTVSS
VL: DIQMTQSPSSVSASVGDRVTITCRASQGISTYLNWYQHQSGKAPKLLIYGAFRLQSGVPSRFSGSGSGTDFTLTISNLQPEDFATYYCQQAKNFPLTFGGGTKVDIK
With B4, the OD490 turned out to be 0.0477 OD in the assay with Fc [1]; 0.047 OD in the assay with Fc [2]; 2.99 OD with ACVR2B-Fc fusion protein [3]; 2.99 OD with ACVR2B-Fc fusion protein [4]; 0.657 OD in assay [5]; 0.657 OD in assay [6]. Further, in the assay with ACVR2B-Fc fusion protein [7], the Ratio worked out at 4.55.

B5: ACVR2B A06 (monoclonal scFv-phage) (scFv, V domains shown)
VH: VQLVQSGGGLVQPGRSLRLSCTASGFTFGDYAMSWVRQAPGKGLEWVGFIRSKRYDGTAEYAASVKGRFTISRDDSKNSLYLQMNSLRAEDTAVYYCARGHYAMDVWGQGTTVTVSS
VL: DIQMTQSPSSLSASVGDRVTITCRASRSISNYLNWYQQKPGKAPKLLIYAASSLQSGVPSRFSGSGSGTDFTLTISSLQPEDFATYYCQQSYDTPFTFGLGNQLEIK
notes: also called A6
For the molecule B5, the OD490 with Fc [1] stood at 0.046 OD; with Fc [2] it was 0.046 OD; in the assay with ACVR2B-Fc fusion protein [3] it was 2.96 OD; in the assay with ACVR2B-Fc fusion protein [4], 2.96 OD; in assay [5], 0.704 OD; in assay [6], 0.703 OD. For the same molecule, the Ratio with ACVR2B-Fc fusion protein [7] was found to be 4.21.

B6: ACVR2B D11 (monoclonal scFv-phage) (scFv, V domains shown)
VH: MQLVQSGGGLVQPGRSLGLSCTASGFTFGDYAMSWVRQAPGKGLEWVGFIRSKAYGGTTEYAASVKGRLTISRDDSKSIAYLQMNSLRAEDTAVYYCARGHYGMDVWGQGTTVTVSS
VL: DIQMTQSPSSLSASVGDRVTITCRASQNISNFLNWYQQKPGKAPKLLIYSASRLQRGVPSRFSGSGSGTDFTLTISSLQPEDFATYYCQQSYSTPYTFGQGTKLEIK
As for B6, the OD490 came to 0.0429 OD in the assay with Fc [1]; 0.042 OD with Fc [2]; 3.05 OD in the assay with ACVR2B-Fc fusion protein [3]; 3.05 OD with ACVR2B-Fc fusion protein [4]; 0.834 OD in assay [5]; 0.833 OD in assay [6]. Besides, the Ratio in the assay with ACVR2B-Fc fusion protein [7] stood at 3.66.

B7: ACVR2B D07 (monoclonal scFv-phage) (scFv, V domains shown)
VH: QVQLVQSGAEVKKPGASVKVSCKASGYTFTSYYMHWVRQAPGQGLEWMGIINPSGGSTSYAQKFQGRVTMTRDTSTSTVYMELSSLRSEDTAVYYCAKDQSRGWYSNFDSWGQGTLVTVSS
VL: DIQMTQSPSTLSASVGDRVTITCRASQTVSNWLAWYQLKPGKAPKLLIYKASSLESGVPSRFSGTGSETEFTLTISSLQPDDFATYYCQQYHSYPITFGQGTRLEIK
notes: also called D7
As for B7, the OD490 with Fc [1] was 0.0428 OD; with Fc [2] it was 0.042 OD; with ACVR2B-Fc fusion protein [3], 2.66 OD; with ACVR2B-Fc fusion protein [4], 2.66 OD; in assay [5], 0.241 OD; in assay [6] it was 0.24 OD. For the same molecule, the Ratio in the assay with ACVR2B-Fc fusion protein [7] came to 11.

B8: ACVR2B A09 (monoclonal scFv-phage) (scFv, V domains shown)
VH: VQLVESGGGLVQPGRSLRLSCAASGFTFDSYWMSWVRQAPGKGLEWVANIKYDGSEKHYMDSVKGRFTISRDNAKNSVYLQMNSLRAEDTAVYYCAKGAWLDYWGQGTQVTVSS
VL: IQMTQSPSAMSASVGDRVTITCRASQGISNYLAWFQQKPGKVPKRLIYAASSLQSGVPSRFSGSGSGTGFTLTITSLQPEDFATYYCLQHKSYPYTFGQGTKLEIK
notes: also called A9
Consider B8, for which the OD490 with Fc [1] amounted to 0.0482 OD; with Fc [2] it was 0.048 OD; with ACVR2B-Fc fusion protein [3], 2.18 OD; in the assay with ACVR2B-Fc fusion protein [4] it was 2.18 OD; in assay [5] it was 1.17 OD; in assay [6], 1.17 OD. Further, the Ratio in the assay with ACVR2B-Fc fusion protein [7] turned out to be 1.86.

B9: ACVR2B B12 (monoclonal scFv-phage) (scFv, V domains shown)
VH: VQLVQSGAEVKKPGESLKISCKTSGYTFTHYWIGWVRQMPGKGLEWMGRINPTDSYADYSPSFQGHVIMSVDKSVSTAYLHWNSLKASDTAMYYCARGTALGVWGQGTTVTVSS
VL: IQMTQSPSAMSASVGDRVTITCRASQGISNYLAWFQQKPGKVPKRLIYAASSLQSGVPSRFSGSGSGTEFTLTITSLQPEDFATYYCLQHKSYPYTFGQGTKLEIK
Regarding B9, the OD490 was found to be 0.0447 OD in the assay with Fc [1]; 0.044 OD in the assay with Fc [2]; 2.76 OD with ACVR2B-Fc fusion protein [3]; 2.75 OD with ACVR2B-Fc fusion protein [4]; 1.46 OD in assay [5]; 1.46 OD in assay [6]. Further, in the assay with ACVR2B-Fc fusion protein [7], the Ratio was found to be 1.89.

B10: ACVR2B F08 (monoclonal scFv-phage) (scFv, V domains shown)
VH: VQLVESGGGLVQPGGSLRLSCAASGFTFSDHYMDWVRQAPGKGLEWVGRTRNKANSYTTEYAASVKGRFTISRDDSKNSLYLQMNSLRAEDTAVYYCTKGAWLDYWGQGTLVTVSS
VL: IQMTQSPSAMSASVGDRVTITCRASQGISNYLAWFQQKPGKVPKRLIYGASSLQGGVPSRFSGSGSGTEFTLTITSLQPEDFATYFCLQHKSYPLTFGPGTKVEIK
notes: also called F8
In the case of B10, the OD490 was found to be 0.117 OD with Fc [1]; 0.116 OD with Fc [2]; 2.94 OD with ACVR2B-Fc fusion protein [3]; 2.94 OD with ACVR2B-Fc fusion protein [4]; 0.783 OD in assay [5]; 0.783 OD in assay [6]. In addition, the Ratio with ACVR2B-Fc fusion protein [7] was 3.75.
